Source: PMC314469, “Protein Interaction Networks by Proteome Peptide Scanning” (PLoS Biology, 2004)
Each block holds one binder with its values, some of them ahead of it.

What was measured:
Experiment in all cases: SPOT array
[1] = biological target: T1, Yfr024 SH3 (LSB3_YEAST), P43603
T1 chain: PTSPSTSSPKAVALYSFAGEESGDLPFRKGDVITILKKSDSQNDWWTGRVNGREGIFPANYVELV

[2] = biological target: T2, Yhr016c SH3 (YSC84_YEAST), P32793
T2 chain: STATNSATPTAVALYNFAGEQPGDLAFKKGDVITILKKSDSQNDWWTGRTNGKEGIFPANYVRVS

[3] = biological target: T3, Boi1 SH3 (BOI1_YEAST), P38041
T3 chain: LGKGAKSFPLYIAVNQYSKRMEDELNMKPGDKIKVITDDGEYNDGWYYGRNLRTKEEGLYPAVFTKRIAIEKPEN

[4] = biological target: T4, Boi2 SH3 (BOI2_YEAST), P39969
T4 chain: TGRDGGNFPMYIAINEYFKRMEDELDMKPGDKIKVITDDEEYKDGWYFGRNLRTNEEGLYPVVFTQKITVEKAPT

[5] = biological target: T5, Rvs167 SH3 (RV167_YEAST), P39743
T5 chain: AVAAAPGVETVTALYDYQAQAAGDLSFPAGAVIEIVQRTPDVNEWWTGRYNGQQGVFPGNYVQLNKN

- normalised SPOT signal, Boehringer light units (BLU); mean over the file's lines of this peptide [1]: 38000
- normalised SPOT signal, Boehringer light units (BLU); mean over the file's lines of this peptide [2]: 39200
- normalised SPOT signal, Boehringer light units (BLU); mean over the file's lines of this peptide [3]: 227
- normalised SPOT signal, Boehringer light units (BLU); mean over the file's lines of this peptide [4]: 28.3
- normalised SPOT signal, Boehringer light units (BLU); mean over the file's lines of this peptide [5]: 5510
B3: YPL212C 67-80 (peptide)
chain: PKEPRLPKRKVAVM

- normalised SPOT signal, Boehringer light units (BLU); mean over the file's lines of this peptide [1]: 7410
- normalised SPOT signal, Boehringer light units (BLU); mean over the file's lines of this peptide [2]: 5170
- normalised SPOT signal, Boehringer light units (BLU); mean over the file's lines of this peptide [3]: 628
- normalised SPOT signal, Boehringer light units (BLU); mean over the file's lines of this peptide [4]: 33300
- normalised SPOT signal, Boehringer light units (BLU); mean over the file's lines of this peptide [5]: 34500
B4: YPL255W 118-131 (peptide)
chain: PIVPREPLRNEPTD

- normalised SPOT signal, Boehringer light units (BLU); mean over the file's lines of this peptide [1]: 26300
- normalised SPOT signal, Boehringer light units (BLU); mean over the file's lines of this peptide [2]: 9290
- normalised SPOT signal, Boehringer light units (BLU); mean over the file's lines of this peptide [3]: 45.3
- normalised SPOT signal, Boehringer light units (BLU); mean over the file's lines of this peptide [4]: 46.6
- normalised SPOT signal, Boehringer light units (BLU); mean over the file's lines of this peptide [5]: 387
B6: YKL038W 137-150 (peptide)
chain: NTVPSTPSRSNSVL

- normalised SPOT signal, Boehringer light units (BLU); mean over the file's lines of this peptide [1]: 933
- normalised SPOT signal, Boehringer light units (BLU); mean over the file's lines of this peptide [2]: 729
- normalised SPOT signal, Boehringer light units (BLU); mean over the file's lines of this peptide [3]: 51.2
- normalised SPOT signal, Boehringer light units (BLU); mean over the file's lines of this peptide [4]: 31
- normalised SPOT signal, Boehringer light units (BLU); mean over the file's lines of this peptide [5]: 13.1
B10: YLR457C 288-301 (peptide)
chain: PASPTPPYRSRETE

- normalised SPOT signal, Boehringer light units (BLU); mean over the file's lines of this peptide [1]: 3720
- normalised SPOT signal, Boehringer light units (BLU); mean over the file's lines of this peptide [2]: 1410
- normalised SPOT signal, Boehringer light units (BLU); mean over the file's lines of this peptide [3]: 1070
- normalised SPOT signal, Boehringer light units (BLU); mean over the file's lines of this peptide [4]: 574
- normalised SPOT signal, Boehringer light units (BLU); mean over the file's lines of this peptide [5]: 189
B11: YOL017W 129-142 (peptide)
chain: NWSPNIPLRYSDFA

- normalised SPOT signal, Boehringer light units (BLU); mean over the file's lines of this peptide [1]: 996
- normalised SPOT signal, Boehringer light units (BLU); mean over the file's lines of this peptide [2]: 178
- normalised SPOT signal, Boehringer light units (BLU); mean over the file's lines of this peptide [3]: 127
- normalised SPOT signal, Boehringer light units (BLU); mean over the file's lines of this peptide [4]: 147
- normalised SPOT signal, Boehringer light units (BLU); mean over the file's lines of this peptide [5]: 138
B12: YJL005W 495-508 (peptide)
chain: PMSPGPPSKKDSRH

- normalised SPOT signal, Boehringer light units (BLU); mean over the file's lines of this peptide [1]: 2200
- normalised SPOT signal, Boehringer light units (BLU); mean over the file's lines of this peptide [2]: 173
- normalised SPOT signal, Boehringer light units (BLU); mean over the file's lines of this peptide [3]: 80.5
- normalised SPOT signal, Boehringer light units (BLU); mean over the file's lines of this peptide [4]: 45.9
- normalised SPOT signal, Boehringer light units (BLU); mean over the file's lines of this peptide [5]: 50.1
B14: YLR164W 27-40 (peptide)
chain: PFLPKIPQKPGGVS

- normalised SPOT signal, Boehringer light units (BLU); mean over the file's lines of this peptide [1]: 504
- normalised SPOT signal, Boehringer light units (BLU); mean over the file's lines of this peptide [2]: 140
- normalised SPOT signal, Boehringer light units (BLU); mean over the file's lines of this peptide [3]: 80.6
- normalised SPOT signal, Boehringer light units (BLU); mean over the file's lines of this peptide [4]: 21
- normalised SPOT signal, Boehringer light units (BLU); mean over the file's lines of this peptide [5]: 30.2
B16: YHL007C 535-548 (peptide)
chain: PLPPIPPTKSKTSP

- normalised SPOT signal, Boehringer light units (BLU); mean over the file's lines of this peptide [1]: 60.6
- normalised SPOT signal, Boehringer light units (BLU); mean over the file's lines of this peptide [2]: 52.8
- normalised SPOT signal, Boehringer light units (BLU); mean over the file's lines of this peptide [3]: 104
- normalised SPOT signal, Boehringer light units (BLU); mean over the file's lines of this peptide [4]: 7.9
- normalised SPOT signal, Boehringer light units (BLU); mean over the file's lines of this peptide [5]: 20.4
B18: YNL085W 152-165 (peptide)
chain: PIQPQEPFRHNTTI

- normalised SPOT signal, Boehringer light units (BLU); mean over the file's lines of this peptide [1]: 29100
- normalised SPOT signal, Boehringer light units (BLU); mean over the file's lines of this peptide [2]: 50300
- normalised SPOT signal, Boehringer light units (BLU); mean over the file's lines of this peptide [3]: 3860
- normalised SPOT signal, Boehringer light units (BLU); mean over the file's lines of this peptide [4]: 4640
- normalised SPOT signal, Boehringer light units (BLU); mean over the file's lines of this peptide [5]: 28000
B19: YIL061C 231-244 (peptide)
chain: NYAPRLPRRETSSS

- normalised SPOT signal, Boehringer light units (BLU); mean over the file's lines of this peptide [1]: 114
- normalised SPOT signal, Boehringer light units (BLU); mean over the file's lines of this peptide [2]: 156
- normalised SPOT signal, Boehringer light units (BLU); mean over the file's lines of this peptide [3]: 43.5
- normalised SPOT signal, Boehringer light units (BLU); mean over the file's lines of this peptide [4]: 53.8
- normalised SPOT signal, Boehringer light units (BLU); mean over the file's lines of this peptide [5]: 79.4
B20: YLR213C 97-110 (peptide)
chain: NYQPKPPIREGNGP

- normalised SPOT signal, Boehringer light units (BLU); mean over the file's lines of this peptide [1]: 5040
- normalised SPOT signal, Boehringer light units (BLU); mean over the file's lines of this peptide [2]: 1930
- normalised SPOT signal, Boehringer light units (BLU); mean over the file's lines of this peptide [3]: 3190
- normalised SPOT signal, Boehringer light units (BLU); mean over the file's lines of this peptide [4]: 82.5
- normalised SPOT signal, Boehringer light units (BLU); mean over the file's lines of this peptide [5]: 57.6
B21: YMR058W 448-461 (peptide)
chain: PAFPEYPMRRDTLY

Continued, binder first:

B1: YEL023C 311-324 (peptide)
chain: PLIPDNPGRLLSSK
- normalised SPOT signal, Boehringer light units (BLU); mean over the file's lines of this peptide [1]: 200
- normalised SPOT signal, Boehringer light units (BLU); mean over the file's lines of this peptide [2]: 205
- normalised SPOT signal, Boehringer light units (BLU); mean over the file's lines of this peptide [3]: 94.5
- normalised SPOT signal, Boehringer light units (BLU); mean over the file's lines of this peptide [4]: 48.5
- normalised SPOT signal, Boehringer light units (BLU); mean over the file's lines of this peptide [5]: 42.7

B2: YBL067C 285-298 (peptide)
chain: PNEPGAPSRLSFEN
- normalised SPOT signal, Boehringer light units (BLU); mean over the file's lines of this peptide [1]: 34.7
- normalised SPOT signal, Boehringer light units (BLU); mean over the file's lines of this peptide [2]: 258
- normalised SPOT signal, Boehringer light units (BLU); mean over the file's lines of this peptide [3]: 104
- normalised SPOT signal, Boehringer light units (BLU); mean over the file's lines of this peptide [4]: 71.5
- normalised SPOT signal, Boehringer light units (BLU); mean over the file's lines of this peptide [5]: 52.4

B5: YBR036C 302-315 (peptide)
chain: PFIPKFPSRESVES
- normalised SPOT signal, Boehringer light units (BLU); mean over the file's lines of this peptide [1]: 2600
- normalised SPOT signal, Boehringer light units (BLU); mean over the file's lines of this peptide [2]: 1410
- normalised SPOT signal, Boehringer light units (BLU); mean over the file's lines of this peptide [3]: 39.7
- normalised SPOT signal, Boehringer light units (BLU); mean over the file's lines of this peptide [4]: 70.4
- normalised SPOT signal, Boehringer light units (BLU); mean over the file's lines of this peptide [5]: 506

B7: YGL060W 537-550 (peptide)
chain: PIMPTLPPRPYITI
- normalised SPOT signal, Boehringer light units (BLU); mean over the file's lines of this peptide [1]: 26100
- normalised SPOT signal, Boehringer light units (BLU); mean over the file's lines of this peptide [2]: 24900
- normalised SPOT signal, Boehringer light units (BLU); mean over the file's lines of this peptide [3]: 31.6
- normalised SPOT signal, Boehringer light units (BLU); mean over the file's lines of this peptide [4]: 87.6
- normalised SPOT signal, Boehringer light units (BLU); mean over the file's lines of this peptide [5]: 5510

B8: YFR022W 634-647 (peptide)
chain: NVQPRKPSRVHSRN
- normalised SPOT signal, Boehringer light units (BLU); mean over the file's lines of this peptide [1]: 19900
- normalised SPOT signal, Boehringer light units (BLU); mean over the file's lines of this peptide [2]: 5260
- normalised SPOT signal, Boehringer light units (BLU); mean over the file's lines of this peptide [3]: 899
- normalised SPOT signal, Boehringer light units (BLU); mean over the file's lines of this peptide [4]: 1310
- normalised SPOT signal, Boehringer light units (BLU); mean over the file's lines of this peptide [5]: 1900

B9: YGR084C 87-100 (peptide)
chain: PLQPRPPVKPLSKQ
- normalised SPOT signal, Boehringer light units (BLU); mean over the file's lines of this peptide [1]: 861
- normalised SPOT signal, Boehringer light units (BLU); mean over the file's lines of this peptide [2]: 128
- normalised SPOT signal, Boehringer light units (BLU); mean over the file's lines of this peptide [3]: 91.7
- normalised SPOT signal, Boehringer light units (BLU); mean over the file's lines of this peptide [4]: 34.5
- normalised SPOT signal, Boehringer light units (BLU); mean over the file's lines of this peptide [5]: 57.3

B13: YDR178W 35-48 (peptide)
chain: PFLPVLPQKPGGVR
- normalised SPOT signal, Boehringer light units (BLU); mean over the file's lines of this peptide [1]: 12700
- normalised SPOT signal, Boehringer light units (BLU); mean over the file's lines of this peptide [2]: 338
- normalised SPOT signal, Boehringer light units (BLU); mean over the file's lines of this peptide [3]: 49.9
- normalised SPOT signal, Boehringer light units (BLU); mean over the file's lines of this peptide [4]: 35.7
- normalised SPOT signal, Boehringer light units (BLU); mean over the file's lines of this peptide [5]: 20

B15: YGL107C 76-89 (peptide)
chain: NVDPASPWRHELLS
- normalised SPOT signal, Boehringer light units (BLU); mean over the file's lines of this peptide [1]: 63
- normalised SPOT signal, Boehringer light units (BLU); mean over the file's lines of this peptide [2]: 271
- normalised SPOT signal, Boehringer light units (BLU); mean over the file's lines of this peptide [3]: 72.9
- normalised SPOT signal, Boehringer light units (BLU); mean over the file's lines of this peptide [4]: 8.5
- normalised SPOT signal, Boehringer light units (BLU); mean over the file's lines of this peptide [5]: 33.4

B17: YBR216C 239-252 (peptide)
chain: NYIPPDPPKDIQLN
- normalised SPOT signal, Boehringer light units (BLU); mean over the file's lines of this peptide [1]: 254
- normalised SPOT signal, Boehringer light units (BLU); mean over the file's lines of this peptide [2]: 79.4
- normalised SPOT signal, Boehringer light units (BLU); mean over the file's lines of this peptide [3]: 182
- normalised SPOT signal, Boehringer light units (BLU); mean over the file's lines of this peptide [4]: 40.9
- normalised SPOT signal, Boehringer light units (BLU); mean over the file's lines of this peptide [5]: 176

B22: YBR271W 27-40 (peptide)
chain: PKDPSSPQRDEILT
- normalised SPOT signal, Boehringer light units (BLU); mean over the file's lines of this peptide [1]: 6.2
- normalised SPOT signal, Boehringer light units (BLU); mean over the file's lines of this peptide [2]: 0
- normalised SPOT signal, Boehringer light units (BLU); mean over the file's lines of this peptide [3]: 138
- normalised SPOT signal, Boehringer light units (BLU); mean over the file's lines of this peptide [4]: 156
- normalised SPOT signal, Boehringer light units (BLU); mean over the file's lines of this peptide [5]: 53.2
